Source: patent US20220406376A1 (MacroGenics, published 2022)
Substitutions are numbered along the chain they refer to.

Legend:
[1] = target: T1, 5T4 on the surface of target cells (JIMT-1, SKOV-3) (UniProt Q13641 32-420, limits assumed); assay: flow cytometry on SKOV-3 (5T4 lo) cells, anti-hFc APC MFI
T1 construct: whole, on cells
T1 sequence (looked up): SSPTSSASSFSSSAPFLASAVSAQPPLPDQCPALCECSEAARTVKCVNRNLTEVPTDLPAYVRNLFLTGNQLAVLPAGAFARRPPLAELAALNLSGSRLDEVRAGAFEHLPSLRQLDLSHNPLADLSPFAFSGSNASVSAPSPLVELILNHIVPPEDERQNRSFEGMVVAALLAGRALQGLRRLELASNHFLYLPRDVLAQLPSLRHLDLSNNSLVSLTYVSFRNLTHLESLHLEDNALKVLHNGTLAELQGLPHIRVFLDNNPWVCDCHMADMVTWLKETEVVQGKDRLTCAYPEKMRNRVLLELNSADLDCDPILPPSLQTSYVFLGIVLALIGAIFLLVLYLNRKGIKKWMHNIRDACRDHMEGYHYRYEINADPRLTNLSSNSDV

[2] = target: T1, 5T4 on the surface of target cells …; assay: flow cytometry on JIMT-1 (5T4 hi) cells, anti-hFc APC MFI
[3] = target: T2, CD137 on the surface of cells (activated human T cells; engineered CHO cells) (human, UniProt Q07011 24-255); assay: flow cytometry on activated CD8+ T cells (donor D59788, CD8 FITC), anti-hFc APC MFI
T2 construct: whole, on cells; also called human CD137; cell surface expressed CD137
T2 sequence (Q07011 24-255, change not shown): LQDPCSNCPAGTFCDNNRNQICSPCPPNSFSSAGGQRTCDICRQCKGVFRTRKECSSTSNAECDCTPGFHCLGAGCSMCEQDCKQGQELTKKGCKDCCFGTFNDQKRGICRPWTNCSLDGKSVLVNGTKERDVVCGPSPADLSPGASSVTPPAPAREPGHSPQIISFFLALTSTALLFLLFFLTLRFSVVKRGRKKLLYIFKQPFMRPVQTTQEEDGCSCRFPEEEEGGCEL

[4] = target: T3, extracellular portion of human HER2 fused to a histidine-containing peptide (human, UniProt P04626 23-652); assay: SPR (BIACORE), essentially as for Table 8
T3 construct: extracellular domain; also called huHER2; Human HER2/neu
Excerpt: The humanized variants were selected to have improved binding affinity as compared to the parental murine antibody and as described may be further engineered to eliminate sequence liabilities (e.g., isomerization, deamidation sites) as described above. The binding affinity of several combinations of humanized VH and VL domains was examined by BIACORE®. Thus, an extracellular portion of human HER2 fused to a histidine-containing peptide (“huHER2”) was passed over a surface coated with immobilized antibody. Briefly, each test molecule was captured onto an F(ab)₂ goat-anti-human Fc-coated surface and then incubated in the presence of different concentrations (6.25 nM-50 nM) of huHER2. The kinetics of binding were determined via BIACORE® analysis binding (normalized 1:1 Langmuir binding model).
In a separate study, the binding kinetics of the CD137×TA bispecific diabody, DART-B (described above), were determined for binding to human HER2 and cynomolgus monkey HER2, essentially as described above.

[5] = target: T2, CD137 on the surface of cells …; assay: flow cytometry on activated pan T cells gated CD8, anti-hFc APC MFI
[6] = target: T4, HER2/neu on the surface of target cells (N87, JIMT-1, MCF-7, MDA-MB231) (UniProt P04626 23-1255, limits assumed); assay: flow cytometry on N87 cells, anti-hFc APC MFI
T4 construct: whole, on cells
Protocol: (§1) CD137×TA Binding Molecules, DART-B, DART-D, DART-G and the control molecules DART-3 and DART-6 were additionally evaluated for their ability to bind to HER2/neu expressed on N87 cells (FIG. 13A) and JIMT-1 cells (FIG. 13B). For such evaluation, 100 μL of HER2/neu expressing target cells (1.0×1⁰⁶ cells/mL) and 100 μL of serially diluted (5- or 10-fold dilutions) test article (bispecific diabody) were added to each well of microtiter assay plate(s), mixed and incubated at RT for 45 min. The cells were washed with FACS Buffer and secondary antibody (anti-human-Fc region-APC) was then added to each well; mixed and incubated at RT for 30 min. Cells were washed and resuspended in 100 μL FACS Buffer and analyzed by flow cytometry (BD LSR Fortessa or FACSCanto 11) for cell event collection. Data analysis were performed via FloJo v10.

[7] = target: T2, CD137 on the surface of cells …; assay: flow cytometry on activated CD8+ T cells (CD8 FITC), anti-hFc APC MFI
[8] = target: T4, HER2/neu on the surface of target cells …; assay: flow cytometry on JIMT-1 cells, anti-hFc APC MFI
Protocol: as §1

[9] = target: T4, HER2/neu on the surface of target cells …; assay: flow cytometry on N87 gastric cancer cells, anti-hFc APC MFI
[10] = target: T2, CD137 on the surface of cells …; assay: flow cytometry on CD137-expressing CHO cells (CHO/137), anti-hFc APC MFI
[11] = target: T2, CD137 on the surface of cells …; assay: flow cytometry on activated pan T cells gated CD8+ (donor D43867), anti-hFc APC MFI
Protocol: Three antibodies were selected for further study. For such evaluations, purified pan T-cells (see above) were stimulated with anti-CD3/CD28 beads (cells:beads=1:1) for 72 hours in the presence of IL-2 (100 U/mL). 100 μL of activated T cells (1.0×10⁶ cells/mL) and 100 μL of serially diluted (5- or 10-fold dilutions) test article (antibody or bispecific diabody) was added to each well of microtiter assay plate(s), mixed and incubated at RT for 45 min. The cells were washed with FACS Buffer and secondary antibody (anti-human-Fc region-APC) was then added to each well; mixed and incubated at RT for 30 min. Cells were then washed FACS Buffer and T cell surface marker antibodies (anti-CD4 labeled with V510, and anti-CD8 labeled with FITC) were then added to each well; mixed and incubated at RT for 30 min. Cells were washed and resuspended in 100 μL FACS Buffer and analyzed by flow cytometry (BD LSR Fortessa or FACSCanto 11) for cell event collection. Data analysis were performed via FloJo v10.

B1: TRIDENT-B2 (bispecific antibody, human IgG1, kappa, L234A L235A)
chain 1: DIQMTQSPSSLSASVGDRVTITCRPSQDISNYLNWYQQKPDKTVKLLIYYTSRLRSGVPSRFSGSGSGTDFTFTISSLQPEDIATYFCQQGDTLPYTFGQGTKLEIKGGGSGGGGQVQLVQSGAEVKKPGASVKVSCKASGYTFTSYWINWVKQAPGQGLEWIGNIYPSDSYTNYNQKFKDKATITADKSTSTAYMELSSLRSEDTAVYYCTRDYGSAYSMSTWGQGTTVTVSSASTKGEVAACEKEVAALEKEVAALEKEVAALEKGGGDKTHTCPPCPAPEAAGGPSVFLFPPKPKDTLMISRTPEVTCVVVDVSHEDPEVKFNWYVDGVEVHNAKTKPREEQYNSTYRVVSVLTVLHQDWLNGKEYKCKVSNKALPAPIEKTISKAKGQPREPQVYTLPPSREEMTKNQVSLWCLVKGFYPSDIAVEWESNGQPENNYKTTPPVLDSDGSFFLYSKLTVDKSRWQQGNVFSCSVMHEALHNHYTQKSLSLSPGK
chain 2: DIQMTQSPSSLSASVGDRVTITCRPSQDISNYLNWYQQKPDKTVKLLIYYTSRLRSGVPSRFSGSGSGTDFTFTISSLQPEDIATYFCQQGDTLPYTFGQGTKLEIKGGGSGGGGQVQLVQSGAEVKKPGASVKVSCKASGYTFTSYWINWVKQAPGQGLEWIGNIYPSDSYTNYNQKFKDKATITADKSTSTAYMELSSLRSEDTAVYYCTRDYGSAYSMSTWGQGTTVTVSSASTKGKVAACKEKVAALKEKVAALKEKVAALKE
heavy: QVQLVQSGAEVKKPGASVKVSCKASGYTFTSFWMHWVRQAPGQGLEWMGRIDPNRGGTEYNEKAKSRVTMTADKSTSTAYMELSSLRSEDTAVYYCAGGNPYYPMDYWGQGTTVTVSSASTKGPSVFPLAPSSKSTSGGTAALGCLVKDYFPEPVTVSWNSGALTSGVHTFPAVLQSSGLYSLSSVVTVPSSSLGTQTYICNVNHKPSNTKVDKRVEPKSCDKTHTCPPCPAPEAAGGPSVFLFPPKPKDTLMISRTPEVTCVVVDVSHEDPEVKFNWYVDGVEVHNAKTKPREEQYNSTYRVVSVLTVLHQDWLNGKEYKCKVSNKALPAPIEKTISKAKGQPREPQVYTLPPSREEMTKNQVSLSCAVKGFYPSDIAVEWESNGQPENNYKTTPPVLDSDGSFFLVSKLTVDKSRWQQGNVFSCSVMHEALHNRYTQKSLSLSPGK
light: DIQMTQSPSSLSASVGDRVTITCRASQGISNYLAWFQQKPGKAPKSLIYRANRLQSGVPSRFSGSGSGTDFTLTISSLQPEDVATYYCLQYDDFPWTFGQGTKLEIKRTVAAPSVFIFPPSDEQLKSGTASVVCLLNNFYPREAKVQWKVDNALQSGNSQESVTEQDSKDSTYSLSSTLTLSKADYEKHKVYACEVTHQGLSSPVTKSFNRGEC
EC50 (read off the curve) [1]: ~0.04 µg/mL
EC50 (read off the curve) [2]: ~0.08 µg/mL
EC50 (read off the curve) [3]: ~0.007 µg/mL

B2: TRIDENT-3 (other)
chain 1: DIQMTQSPSTLSASVGDRVTITCRASQSVGYMHWYQQKPGKAPKLLIYDTSKLASGVPSRFSGSGSGTEFTLTISSLQPDDFATYYCFQGSGYPFTFGGGTKLEIKGGGSGGGGEVKLDETGGGLVQPGRPMKLSCVASGFTFSDYWMNWVRQSPEKGLEWVAQIRNKPYNYETYYSDSVKGRFTISRDDSKSSVYLQMNNLRVEDMGIYYCTGSYYGMDYWGQGTSVTVSSASTKGEVAACEKEVAALEKEVAALEKEVAALEKGGGDKTHTCPPCPAPEAAGGPSVFLFPPKPKDTLMISRTPEVTCVVVDVSHEDPEVKFNWYVDGVEVHNAKTKPREEQYNSTYRVVSVLTVLHQDWLNGKEYKCKVSNKALPAPIEKTISKAKGQPREPQVYTLPPSREEMTKNQVSLWCLVKGFYPSDIAVEWESNGQPENNYKTTPPVLDSDGSFFLYSKLTVDKSRWQQGNVFSCSVMHEALHNHYTQKSLSLSPGK
chain 2: DVVMTQTPFSLPVSLGDQASISCRSSQSLVHSNGNTYLRWYLQKPGQSPKVLIYKVSNRFSGVPDRFSGSGSGTDFTLKISRVEAEDLGVYFCSQSTHVPWTFGGGTKLEIKGGGSGGGGQVTLRESGPALVKPTQTLTLTCTFSGFSLSTSGMSVGWIRQPPGKALEWLADIWWDDKKDYNPSLKSRLTISKDTSKNQVVLKVTNMDPADTATYYCARSMITNWYFDVWGAGTTVTVSSASTKGKVAACKEKVAALKEKVAALKEKVAALKE
heavy: B1 heavy
light: B1 light
EC50 (read off the curve) [1]: ~0.04 µg/mL
EC50 (read off the curve) [2]: ~0.08 µg/mL

B3: TRIDENT-B5 (bispecific antibody, human IgG1, kappa, L234A L235A)
chain 1: B1 chain 1 with R24Q, P25A, S52G, L54A, K153R
chain 2: B1 chain 2 with R24Q, P25A, S52G, L54A, K153R
heavy: B1 heavy
light: B1 light
notes: also called TRIDENT-BS
EC50 (read off the curve) [1]: ~0.04 µg/mL
EC50 (read off the curve) [2]: ~0.08 µg/mL
EC50 (read off the curve) [3]: ~0.007 µg/mL

B4: DART-B (bispecific antibody)
chain 1: not shown
chain 2: DIQMTQSPSSLSASVGDRVTITCRPSQDISNYLNWYQQKPDKTVKLLIYYTSRLRSGVPSRFSGSGSGTDFTFTISSLQPEDIATYFCQQGDTLPYTFGQGTKLEIKGGGSGGGGQVQLVQSGAEVKKPGASVKVSCKASGYTFTNYGMNWVRQAPGQGLEWMGWINTNIGEPTYTEEFKGRVTMTRDTSISTAYMELSRLRSDDTAVYYCARDDGYGNRVSYWGQGTLVTVSSGGCGGGKVAACKEKVAALKEKVAALKEKVAALKE
Kd [4]: 380 pM
koff [4]: 0.000182 s⁻¹
kon [4]: 480000 M⁻¹ s⁻¹
EC50 (read off the curve) [5]: ~100 pM
EC50 (read off the curve) [6]: ~0.06 µg/mL
EC50 (read off the curve) [7]: ~0.02 µg/mL
EC50 (read off the curve) [8]: ~0.03 µg/mL
EC50 (read off the curve) [9]: ~500 pM
EC50 (read off the curve) [10]: ~0.01 µg/mL

B5: hCD137 MAB-3 (1B.3) (antibody, V domains shown)
VH: QVQLVQSGAEVKKPGASVKVSCKASGYTFTSYWINWVKQAPGQGLEWIGNIYPSDSYTNYNQKFKDKATITADKSTSTAYMELSSLRSEDTAVYYCTRDYGSAYSMSTWGQGTTVTVSS
VL: DIQMTQSPSSLSASVGDRVTITCRPSQDISNYLNWYQQKPDKTVKLLIYYTSRLRSGVPSRFSGSGSGTDFTFTISSLQPEDIATYFCQQGDTLPYTFGQGTKLEIK
EC50 (read off the curve) [11]: ~0.007 µg/mL
